Laboratory results from patent publication US20160257760A1 (OXFORD BIOTHERAPEUTICS, published 2016).

What was measured:
Experiment in all cases: peptide microarray, 1 µg/mL LY75_A1, anti-human IgG Alexa 647
DHFTYSRY = biological target: T1, DHFTYSRY
T1 peptide: DHFTYSRY
Method: (§1) The chip comprised three panels such that the experiment was performed in triplicate. […] The binding assay was performed under the following conditions:—The microarray comprising the contiguous peptides in triplicate was washed with 1 mL of binding buffer at 4° C. for 20 min. […] The array was again washed with 0.5 mL of washing buffer at 4° C. for 30 min.

WHRFPVTF = biological target: T2, WHRFPVTF
T2 peptide: WHRFPVTF
Method: as §1

HRFPVTFG = biological target: T3, HRFPVTFG
T3 peptide: HRFPVTFG
Method: as §1

Measured: binding result

B1: LY75_A1 monoclonal antibody (antibody, V domains shown)
VH: EVQLVESGGGLVKPGGSLRLSCAASGFTYSNAWMSWVRQAPGKGLEWVGRIKSKTDGGTTDYAAPVQGRFTISRDDSKNTLYLQMNSLKTEDTAVYYCTIFGVVSFDYWGQGTLVTVSS
VL: DVQMTQSPSSLSASVGDRVTITCRASQSISDYLSWYQQRPGKAPNLLIYAASNLKTGVPSRFSGSGSGTDFTLTISTLQPEDFATYYCQQSYRSPWTFGQGTKVEIKR
notes: also called LY75A1 antibody; LY75_A1 antibody
binds: DHFTYSRY | WHRFPVTF | HRFPVTFG
